Test results: the supplement of paper PMC11246515
± gives the standard deviation of the averaged measurements.

Assay: total protein half-life in vivo (active degradation + dilution); higher = more stable protein
[1] = E. coli NCM3722 delta-clpP delta-lon delta-hslV, growth: N-lim chemostat, doubling time 6 h
[2] = E. coli NCM3722 delta-clpP, growth: N-lim chemostat, doubling time 6 h
[3] = wild type E. coli NCM3722, growth: C-lim chemostat, doubling time 3 h
[4] = wild type E. coli NCM3722, growth: C-lim chemostat, doubling time 6 h
[5] = wild type E. coli NCM3722, growth: C-lim chemostat, doubling time 12 h
[6] = E. coli NCM3722 delta-hslV, growth: N-lim chemostat, doubling time 6 h
[7] = E. coli NCM3722 delta-lon, growth: N-lim chemostat, doubling time 6 h
[8] = E. coli NCM3722 delta-smpB, growth: N-lim chemostat, doubling time 6 h
[9] = wild type E. coli NCM3722, growth: N-lim chemostat, doubling time 6 h
[10] = wild type E. coli NCM3722, growth: N-lim chemostat, doubling time 12 h
[11] = wild type E. coli NCM3722, growth: P-lim chemostat, doubling time 6 h
[12] = wild type E. coli NCM3722, growth: P-lim chemostat, doubling time 12 h

MRFSTQMMYQQNMRGITNSQAEWMKYGEQMSTGKRVVNPSDDPIAASQAVVLSQAQAQNSQYTLARTFATQKVSLEESVLSQVTTAIQNAQEKIVYASNGTLSDDDRASLATDIQGLRDQLLNLANTTDGNGRYIFAGYKTETAPFSEEKGKYVGGAESIKQQVDASRSMVIGHTGDKIFDSITSNAVAEPDGSASETNLFAMLDSAIAALKTPVADSEADKETAAAALDKTNRGLKNSLNNVLTVRAELGTQLNELESLDSLGSDRALGQTQQMSDLVDVDWNATISSYIMQQTALQASYKAFTDMQGLSLFQLSK
total protein half-life in vivo [1]: 2.65 ± 0.11 h
total protein half-life in vivo [2]: > 8 h
total protein half-life in vivo [3]: 0.265 ± 0.026 h
total protein half-life in vivo [4]: 0.393 ± 0.063 h
total protein half-life in vivo [5]: 0.399 ± 0.39 h

MATHFARGILTEGHLISVRLPSQCHQEARNIPPHRQSRFLASRGLLAELMFMLYGIGELPEIVTLPKGKPVFSDKNLPSFSISYAGNMVGVALTTEGECGLDMELQRATRGFHSPHAPDNHTFSSNESLWISKQNDPNEARAQLITLRRSVLKLTGDVLNDDPRDLQLLPIAGRLKCAHVNHVEALCDAEDVLVWSVAVTPTIEKLSVWELDGKHGWKSLPDIHSRANNPTSRMMRFAQLSTVKAFSPN [P0ADM8]
total protein half-life in vivo [2]: 4.2 ± 0.51 h
total protein half-life in vivo [6]: 3.24 ± 1.1 h
total protein half-life in vivo [7]: 2.271 ± 0.01 h
total protein half-life in vivo [8]: 2.5 ± 0.27 h
total protein half-life in vivo [4]: 3.36 ± 0.66 h
total protein half-life in vivo [5]: 6.92 ± 0.22 h
total protein half-life in vivo [9]: 2.12 ± 0.18 h
total protein half-life in vivo [10]: 3.63 ± 0.21 h
total protein half-life in vivo [11]: 3.22 ± 0.14 h
total protein half-life in vivo [12]: 5.24 ± 0.93 h

MTTQVPPSALLPLNPEQLARLQAATTDLTPTQLAWVSGYFWGVLNQQPAALAATPAPAAEMPGITIISASQTGNARRVAEALRDDLLAAKLNVKLVNAGDYKFKQIASEKLLIVVTSTQGEGEPPEEAVALHKFLFSKKAPKLENTAFAVFSLGDSSYEFFCQSGKDFDSKLAELGGERLLDRVDADVEYQAAASEWRARVVDALKSRAPVAAPSQSVATGAVNEIHTSPYSKDAPLVASLSVNQKITGRNSEKDVRHIEIDLGDSGMRYQPGDALGVWYQNDPALVKELVELLWLKGDEPVTVEGKTLPLNEALQWHFELTVNTANIVENYATLTRSETLLPLVGDKAKLQHYAATTPIVDMVRFSPAQLDAEALINLLRPLTPRLYSIASSQAEVENEVHVTVGVVRYDVEGRARAGGASSFLADRVEEEGEVRVFIEHNDNFRLPANPETPVIMIGPGTGIAPFRAFMQQRAADEAPGKNWLFFGNPHFTEDFLYQVEWQRYVKDGVLTRIDLAWSRDQKEKVYVQDKLREQGAELWRWINDGAHIYVCGDANRMAKDVEQALLEVIAEFGGMDTEAADEFLSELRVERRYQRDVY
total protein half-life in vivo [1]: 5.2 ± 0.35 h
total protein half-life in vivo [2]: 3.456 ± 0.027 h
total protein half-life in vivo [6]: 3.67 ± 0.1 h
total protein half-life in vivo [7]: 4.31 ± 0.044 h
total protein half-life in vivo [8]: 3.24 ± 0.067 h
total protein half-life in vivo [3]: 2.808 ± 0.02 h
total protein half-life in vivo [4]: 4.99 ± 0.42 h
total protein half-life in vivo [5]: 8.53 ± 0.79 h
total protein half-life in vivo [9]: 3.58 ± 0.06 h
total protein half-life in vivo [10]: 5.215 ± 0.029 h
total protein half-life in vivo [11]: 4.99 ± 0.36 h
total protein half-life in vivo [12]: 8.98 ± 1 h

MASKFQNRLVGTIVLVALGVIVLPGLLDGQKKHYQDEFAAIPLVPKAGDRDEPDMMPAATQALPTQPPEGAAEEVRAGDAAAPSLDPATIAANNTEFEPEPAPVAPPKPKPVEPPKPKVEAPPAPKPEPKPVVEEKAAPTGKAYVVQLGALKNADKVNEIVGKLRGAGYRVYTSPSTPVQGKITRILVGPDASKDKLKGSLGELKQLSGLSGVVMGYTPN
total protein half-life in vivo [1]: 4.2 ± 0.25 h
total protein half-life in vivo [2]: 5.15 ± 2.6 h
total protein half-life in vivo [6]: 3.72 ± 0.18 h
total protein half-life in vivo [7]: 3.63 ± 0.44 h
total protein half-life in vivo [8]: 3.52 ± 0.13 h
total protein half-life in vivo [3]: 2.45 ± 0.036 h
total protein half-life in vivo [4]: 3.46 ± 0.32 h
total protein half-life in vivo [5]: 6.92 ± 0.23 h
total protein half-life in vivo [9]: 3.32 ± 0.14 h
total protein half-life in vivo [10]: 5.77 ± 1.7 h
total protein half-life in vivo [11]: 2.83 ± 0.55 h
total protein half-life in vivo [12]: 5.38 ± 0.026 h

MNLNSIPAFDDNYIWVLNDEAGRCLIVDPGDAEPVLNAIAANNWQPEAIFLTHHHHDHVGGVKELVEKFPQIVVYGPQETQDKGTTQVVKDGETAFVLGHEFSVIATPGHTLGHICYFSKPYLFCGDTLFSGGCGRLFEGTASQMYQSLKKLSALPDDTLVCCAHEYTLSNMKFALSILPHDLSINDYYRKVKELRAKNQITLPVILKNERQINVFLRTEDIDLINVINEETLLQQPEERFAWLRSKKDRF [P0AC84]
total protein half-life in vivo [1]: 4.67 ± 0.3 h
total protein half-life in vivo [2]: 4.24 ± 0.2 h
total protein half-life in vivo [6]: 4.88 ± 0.89 h
total protein half-life in vivo [7]: 4.5351 ± 0.0033 h
total protein half-life in vivo [8]: 4.01 ± 0.41 h
total protein half-life in vivo [3]: 2.81 ± 0.13 h
total protein half-life in vivo [4]: 4.76 ± 0.13 h
total protein half-life in vivo [5]: 7.09 ± 1.1 h
total protein half-life in vivo [9]: 4.31 ± 0.21 h
total protein half-life in vivo [10]: 6.316 ± 0.03 h
total protein half-life in vivo [11]: 4.81 ± 0.13 h
total protein half-life in vivo [12]: 8.75 ± 0.89 h

MSDKKKRSMAGLPWIAAMAFFMQALDATILNTALPAIAHSLNRSPLAMQSAIISYTLTVAMLIPVSGWLADRFGTRRIFTLAVSLFTLGSLACALSNSLPQLVVFRVIQGIGGAMMMPVARLALLRAYPRNELLPVLNFVAMPGLVGPILGPVLGGVLVTWATWHWIFLINIPIGIAGLLYARKHMPNFTTARRRFDITGFLLFGLSLVLFSSGIELFGEKIVASWIALTVIVTSIGLLLLYILHARRTPNPLISLDLFKTRTFSIGIVGNIATRLGTGCVPFLMPLMLQVGFGYQAFIAGCMMAPTALGSIIAKSMVTQVLRRLGYRHTLVGITVIIGLMIAQFSLQSPAMAIWMLILPLFILGMAMSTQFTAMNTITLADLTDDNASSGNSVLAVTQQLSISLGVAVSAAVLRVYEGMEGTTTVEQFHYTFITMGIITVASAAMFMLLKTTDGNNLIKRQRKSKPNRVPSESE
total protein half-life in vivo [1]: 6.64 h
total protein half-life in vivo [11]: 5.92 h

MIIPALDLIDGTVVRLHQGDYGKQRDYGNDPLPRLQDYAAQGAEVLHLVDLTGAKDPAKRQIPLIKTLVAGVNVPVQVGGGVRSEEDVAALLEAGVARVVVGSTAVKSQDMVKGWFERFGADALVLALDVRIDEQGNKQVAVSGWQENSGVSLEQLVETYLPVGLKHVLCTDISRDGTLAGSNVSLYEEVCARYPQVAFQSSGGIGDIDDVAALRGTGVRGVIVGRALLEGKFTVKEAIACWQNA
total protein half-life in vivo [1]: 4.64 ± 0.11 h
total protein half-life in vivo [2]: 3.46 ± 0.32 h
total protein half-life in vivo [6]: 4.07 ± 0.29 h
total protein half-life in vivo [7]: 4.52 ± 0.096 h
total protein half-life in vivo [8]: 3.23 ± 0.34 h
total protein half-life in vivo [3]: 3.21 ± 0.094 h
total protein half-life in vivo [4]: 5.72 ± 0.66 h
total protein half-life in vivo [5]: 10 ± 1.4 h
total protein half-life in vivo [9]: 3.66 ± 0.097 h
total protein half-life in vivo [10]: 5.29 ± 0.65 h
total protein half-life in vivo [11]: 5.28 ± 0.072 h
total protein half-life in vivo [12]: 9.43 ± 0.71 h

MNNMFEPPKNYNEMLPKLHKATFLNTLIYCILLVIYEYIPLITLPTKYVPPIKDHESFINWALSFGILPCAFAIFAYLISGALDLHNNAAKLLRVRYLWDKHLIIKPLSRRAGVNRKLNKDEAHNVMSNLYYPEVRKIEDKHYIELFWNKVYYFWIFFEFSIIALISFLIIFFCKQMDIFHVEGSLLSLFFFVILSFSVSGIIFALTVKPRTESQVGKIPDDKIKEFFTKNNIN
total protein half-life in vivo [1]: 5.36 h
total protein half-life in vivo [6]: 4.62 h
total protein half-life in vivo [8]: 5.48 ± 0.069 h
total protein half-life in vivo [3]: 2.94 h
total protein half-life in vivo [4]: 4.97 ± 0.76 h
total protein half-life in vivo [5]: 10.6 ± 0.83 h
total protein half-life in vivo [9]: 5.04 h
total protein half-life in vivo [10]: 7.86 h
total protein half-life in vivo [11]: 5.56 ± 0.71 h
total protein half-life in vivo [12]: 11.3 ± 1.6 h
